Measurements: patent publication US20210261648A1 (published 2021)

T1: FcγRIIa type H extracellular domain with C-terminal His tag (human, UniProt P12318 34-217)
T1 construct: extracellular domain; also called FcgRIIaH; FcγRIIa H
T1 sequence (looked up): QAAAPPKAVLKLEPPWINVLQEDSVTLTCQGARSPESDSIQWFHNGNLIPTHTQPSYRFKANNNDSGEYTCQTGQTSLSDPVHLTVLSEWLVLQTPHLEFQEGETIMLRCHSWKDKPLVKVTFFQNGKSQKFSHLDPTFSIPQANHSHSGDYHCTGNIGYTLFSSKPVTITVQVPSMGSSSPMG

T2: FcγRIIb extracellular domain with C-terminal His tag (human, UniProt P31994 43-217)
T2 construct: extracellular domain; also called FcgRIIb
T2 sequence (looked up): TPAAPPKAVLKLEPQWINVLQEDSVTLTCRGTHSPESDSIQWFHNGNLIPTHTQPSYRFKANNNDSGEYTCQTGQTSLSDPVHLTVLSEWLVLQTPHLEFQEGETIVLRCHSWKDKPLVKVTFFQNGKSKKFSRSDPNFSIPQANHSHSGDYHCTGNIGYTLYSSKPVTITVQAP

T3: FcγRIIa type R extracellular domain with C-terminal His tag (human, UniProt P12318 34-217)
T3 chain: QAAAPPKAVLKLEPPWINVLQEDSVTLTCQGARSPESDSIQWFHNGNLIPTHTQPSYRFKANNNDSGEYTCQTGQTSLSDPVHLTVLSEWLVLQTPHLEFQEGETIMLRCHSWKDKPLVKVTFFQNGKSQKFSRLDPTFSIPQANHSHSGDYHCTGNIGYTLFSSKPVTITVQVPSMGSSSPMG

T4: FcγRIIb extracellular domain with C-terminal His tag (human, UniProt P31994 43-217)
T4 construct: extracellular domain; For crystallography it was expressed with kifunensine and trimmed with Endo F1; also called FcgRIIb; FcγRIIb extracellular region; not shown: His tag attached to the C terminus
T4 sequence (looked up): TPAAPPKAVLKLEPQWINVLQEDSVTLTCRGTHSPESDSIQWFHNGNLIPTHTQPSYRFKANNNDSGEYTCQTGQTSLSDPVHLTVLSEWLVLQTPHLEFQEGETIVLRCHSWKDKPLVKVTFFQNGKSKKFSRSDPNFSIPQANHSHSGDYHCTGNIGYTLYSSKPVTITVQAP

B1: IL6R-2B253/IL6R-L (antibody, human IgG1, kappa)
heavy: QVQLQESGPGLVKPSETLSLTCAVSGHSISHDHAWSWVRQPPGEGLEWIGFISYSGITNYNPSLQGRVTISRDNSKNTLYLQMNSLRAEDTAVYYCARSLARTTAMDYWGEGTLVTVSSASTKGPSVFPLAPSSKSTSGGTAALGCLVKDYFPEPVTVSWNSGALTSGVHTFPAVLQSSGLYSLSSVVTVPSSSLGTQTYICNVNHKPSNTKVDKKVEPKSCDKTHTCPPCPAPDLLGGDSVFLFPPKPKDTLMISRTPEVTCVVVDVSHEDPEVKFNWYVDGVEVHNAKTKPREEQYNSTYRVVSVLTVLHQDWLNGKEYKCKMSNKALPAPIEKTISKAKGQPREPQVYTLPPSRDELTKNQVSLTCLVKGFYPSDIAVEWESNGQPENNYKTTPPVLDSDGSFFLYSKLTVDKSRWQQGNVFSCSVMHEALHNHYTQESLSLSP
light: not shown
B2: IL6R-BP203/IL6R-L (antibody, human IgG1, kappa)
heavy: QVQLQESGPGLVKPSETLSLTCAVSGHSISHDHAWSWVRQPPGEGLEWIGFISYSGITNYNPSLQGRVTISRDNSKNTLYLQMNSLRAEDTAVYYCARSLARTTAMDYWGEGTLVTVSSASTKGPSVFPLAPSSKSTSGGTAALGCLVKDYFPEPVTVSWNSGALTSGVHTFPAVLQSSGLYSLSSVVTVPSSSLGTQTYICNVNHKPSNTKVDKKVEPKSCDKTHTCPPCPAPELLGDDSVFLFPPKPKDTLMISRTPEVTCVVVDVSHEDGEVKFNWYVDGVEVHNAKTKPREEQYNSTYRVVSVLTVLHQDWLNGKEYKCKVSNKALPRPIEKTISKAKGQPREPQVYTLPPSRDELTKNQVSLTCLVKGFYPSDIAVEWESNGQPENNYKTTPPVLDSDGSFFLYSKLTVDKSRWQQGNVFSCSVMHEALHNHYTQESLSLSP
light: not shown
B3: IL6R-BP209/IL6R-L (antibody, human IgG1, kappa)
heavy: QVQLQESGPGLVKPSETLSLTCAVSGHSISHDHAWSWVRQPPGEGLEWIGFISYSGITNYNPSLQGRVTISRDNSKNTLYLQMNSLRAEDTAVYYCARSLARTTAMDYWGEGTLVTVSSASTKGPSVFPLAPSSKSTSGGTAALGCLVKDYFPEPVTVSWNSGALTSGVHTFPAVLQSSGLYSLSSVVTVPSSSLGTQTYICNVNHKPSNTKVDKKVEPKSCDKTHTCPPCPAPELLGDDSVFLFPPKPKDTLMISRTPEVTCVVVDVSDEDGEVKFNWYVDGVEVHNAKTKPREEQYNSTYRVVSVLTVLHQDWLNGKEYKCKVSNAALPRPIEKTISKAKGQPREPQVYTLPPSRDELTKNQVSLTCLVKGFYPSDIAVEWESNGQPENNYKTTPPVLDSDGSFFLYSKLTVDKSRWQQGNVFSCSVMHEALHNHYTQESLSLSP
light: not shown
B4: IL6R-BP211/IL6R-L (antibody, human IgG1, kappa)
heavy: QVQLQESGPGLVKPSETLSLTCAVSGHSISHDHAWSWVRQPPGEGLEWIGFISYSGITNYNPSLQGRVTISRDNSKNTLYLQMNSLRAEDTAVYYCARSLARTTAMDYWGEGTLVTVSSASTKGPSVFPLAPSSKSTSGGTAALGCLVKDYFPEPVTVSWNSGALTSGVHTFPAVLQSSGLYSLSSVVTVPSSSLGTQTYICNVNHKPSNTKVDKKVEPKSCDKTHTCPPCPAPDLLGGDSVFLFPPKPKDTLMISRTPEVTCVVVDVSDEDGEVKFNWYVDGVEVHNAKTKPREEQYNSTYRVVSVLTVLHQDWLNGKEYKCKVSNAALPRPIEKTISKAKGQPREPQVYTLPPSRDELTKNQVSLTCLVKGFYPSDIAVEWESNGQPENNYKTTPPVLDSDGSFFLYSKLTVDKSRWQQGNVFSCSVMHEALHNHYTQESLSLSP
light: not shown
B5: IL6R-BP213/IL6R-L (antibody, human IgG1, kappa)
heavy: QVQLQESGPGLVKPSETLSLTCAVSGHSISHDHAWSWVRQPPGEGLEWIGFISYSGITNYNPSLQGRVTISRDNSKNTLYLQMNSLRAEDTAVYYCARSLARTTAMDYWGEGTLVTVSSASTKGPSVFPLAPSSKSTSGGTAALGCLVKDYFPEPVTVSWNSGALTSGVHTFPAVLQSSGLYSLSSVVTVPSSSLGTQTYICNVNHKPSNTKVDKKVEPKSCDKTHTCPPCPAPDLLGGDSVFLFPPKPKDTLMISRTPEVTCVVVDVSDEDGEVKFNWYVDGVEVHNAKTKPREEQYNSTYRVVSVLTVLHQDWLNGKEYKCKVSNKALPRPIEKTISKAKGQPREPQVYTLPPSRDELTKNQVSLTCLVKGFYPSDIAVEWESNGQPENNYKTTPPVLDSDGSFFLYSKLTVDKSRWQQGNVFSCSVMHEALHNHYTQESLSLSP
light: not shown
B6: IL6R-BP206/IL6R-L (antibody, human IgG1, kappa)
heavy: QVQLQESGPGLVKPSETLSLTCAVSGHSISHDHAWSWVRQPPGEGLEWIGFISYSGITNYNPSLQGRVTISRDNSKNTLYLQMNSLRAEDTAVYYCARSLARTTAMDYWGEGTLVTVSSASTKGPSVFPLAPSSKSTSGGTAALGCLVKDYFPEPVTVSWNSGALTSGVHTFPAVLQSSGLYSLSSVVTVPSSSLGTQTYICNVNHKPSNTKVDKKVEPKSCDKTHTCPPCPAPDLLGGDSVFLFPPKPKDTLMISRTPEVTCVVVDVSHEDGEVKFNWYVDGVEVHNAKTKPREEQYNSTYRVVSVLTVLHQDWLNGKEYKCKVSNKALPRPIEKTISKAKGQPREPQVYTLPPSRDELTKNQVSLTCLVKGFYPSDIAVEWESNGQPENNYKTTPPVLDSDGSFFLYSKLTVDKSRWQQGNVFSCSVMHEALHNHYTQESLSLSP
light: not shown
B7: IL6R-BP560/IL6R-L (antibody, human IgG1, kappa)
heavy: QVQLQESGPGLVKPSETLSLTCAVSGHSISHDHAWSWVRQPPGEGLEWIGFISYSGITNYNPSLQGRVTISRDNSKNTLYLQMNSLRAEDTAVYYCARSLARTTAMDYWGEGTLVTVSSASTKGPSVFPLAPSSKSTSGGTAALGCLVKDYFPEPVTVSWNSGALTSGVHTFPAVLQSSGLYSLSSVVTVPSSSLGTQTYICNVNHKPSNTKVDKKVEPKSCDKTHTCPPCPAPELLGGDSVFLFPPKPKDTLMISRTPEVTCVVVDVGEEDGEVKFNWYVDGVEVHNAKTKPREEQDNSTYRVVSVLTVLHQDWLNGKEYKCKVSNKALPRPIEKTISKAKGQPREPQVYTLPPSRDELTKNQVSLTCLVKGFYPSDIAVEWESNGQPENNYKTTPPVLDSDGSFFLYSKLTVDKSRWQQGNVFSCSVMHEALHNHYTQESLSLSP
light: not shown
notes: Anti-human IL-6R IgG1; alterations introduced into IL6R-B3 (G1d with K439E)
B8: IL6R-BP561/IL6R-L (antibody, human IgG1, kappa)
heavy: QVQLQESGPGLVKPSETLSLTCAVSGHSISHDHAWSWVRQPPGEGLEWIGFISYSGITNYNPSLQGRVTISRDNSKNTLYLQMNSLRAEDTAVYYCARSLARTTAMDYWGEGTLVTVSSASTKGPSVFPLAPSSKSTSGGTAALGCLVKDYFPEPVTVSWNSGALTSGVHTFPAVLQSSGLYSLSSVVTVPSSSLGTQTYICNVNHKPSNTKVDKKVEPKSCDKTHTCPPCPAPDLLGDDSVFLFPPKPKDTLMISRTPEVTCVVVDVSDEDGDVKFNWYVDGVEVHNAKTKPREEQDNSTYRVVSVLTVLHQDWLNGKEYKCKVSNKALPRPIEKTISKAKGQPREPQVYTLPPSRDELTKNQVSLTCLVKGFYPSDIAVEWESNGQPENNYKTTPPVLDSDGSFFLYSKLTVDKSRWQQGNVFSCSVMHEALHNHYTQESLSLSP
light: not shown
notes: as for B7

Columns and labels:
[1] = molecular target: T5, FcγRIa extracellular domain with C-terminal His tag (human, UniProt P12314 16-292); test: SPR, captured antibody, FcgR analyte
T5 construct: also called FcgRIa
T5 sequence (P12314 16-292): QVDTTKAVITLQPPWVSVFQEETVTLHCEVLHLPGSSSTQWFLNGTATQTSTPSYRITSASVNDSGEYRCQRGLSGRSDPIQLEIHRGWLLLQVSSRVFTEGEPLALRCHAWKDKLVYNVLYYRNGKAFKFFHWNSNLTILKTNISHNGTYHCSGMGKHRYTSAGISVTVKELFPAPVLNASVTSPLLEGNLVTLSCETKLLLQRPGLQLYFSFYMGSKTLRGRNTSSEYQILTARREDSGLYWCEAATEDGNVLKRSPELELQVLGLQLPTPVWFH
Experimental: (§1) Relative binding activities were calculated for the results of analyzing interactions with the respective FcγRs according to the following method.

[2] = molecular target: T6, FcγRIIIa type V extracellular domain with C-terminal His tag (human, UniProt P08637 17-208); test: SPR, captured antibody, FcgR analyte
T6 construct: extracellular domain; also called FcgRIIIaV; FcγRIIIaV
Experimental: as §1

[3] = molecular target: T1, FcγRIIa type H extracellular domain …; test: SPR, captured antibody, FcgR analyte
Experimental: as §1

[4] = molecular target: T2, FcγRIIb extracellular domain with …; test: SPR, captured antibody, FcgR analyte
Experimental: as §1

[5] = molecular target: T3, FcγRIIa type R extracellular domain …; test: SPR (Biacore), antibody captured, FcγR as analyte
[6] = molecular target: T4, FcγRIIb extracellular domain with …; test: SPR (Biacore), antibody captured, FcγR as analyte
[7] = molecular target: T7, FcγRIa extracellular domain with C-terminal His tag (human, UniProt P12314 16-292); test: SPR (Biacore), antibody captured, FcγR as analyte
T7 construct: also called FcgRIa; not shown: His tag attached to the C terminus
T7 sequence (P12314 16-292): as above

[8] = molecular target: T3, FcγRIIa type R extracellular domain …; test: SPR; KD of IL6R-B3/IL6R-L divided by KD of the variant
[9] = molecular target: T4, FcγRIIb extracellular domain with …; test: as above
[10] = molecular target: T4, FcγRIIb extracellular domain with …; test: SPR; KD for FcγRIIaH divided by KD for FcγRIIb
[11] = molecular target: T4, FcγRIIb extracellular domain with …; test: SPR; KD for FcγRIIaR divided by KD for FcγRIIb

T6 sequence (P08637 17-208 F176V): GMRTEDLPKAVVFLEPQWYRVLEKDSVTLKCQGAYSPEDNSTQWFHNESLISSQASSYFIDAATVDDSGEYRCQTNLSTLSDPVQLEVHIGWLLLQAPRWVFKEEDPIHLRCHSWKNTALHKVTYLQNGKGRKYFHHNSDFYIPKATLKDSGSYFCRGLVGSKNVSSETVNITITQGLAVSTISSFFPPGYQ

Binder	relative binding activity [1]	relative binding activity [2]	relative binding activity [3]	relative binding activity [4]	Kd [5]	Kd [6]	Kd [7]	KD(IIaR) of the parent polypeptide/KD(IIaR) of the altered polypeptide [8]	KD(IIb) of the parent polypeptide/KD(IIb) of the altered polypeptide [9]	KD(IIaH)/KD(IIb) [10]	KD(IIaR)/KD(IIb) [11]
B1	155 relative (IL6R-BF648/IL6R-L = 100)	126 relative (IL6R-BF648/IL6R-L = 100)	207 relative (IL6R-BF648/IL6R-L = 100)	156 relative (IL6R-BF648/IL6R-L = 100)	–	–	–	–	–	–	–
B2	35 relative (IL6R-BF648/IL6R-L = 100)	88 relative (IL6R-BF648/IL6R-L = 100)	255 relative (IL6R-BF648/IL6R-L = 100)	185 relative (IL6R-BF648/IL6R-L = 100)	–	–	–	–	–	–	–
B3	68 relative (IL6R-BF648/IL6R-L = 100)	153 relative (IL6R-BF648/IL6R-L = 100)	267 relative (IL6R-BF648/IL6R-L = 100)	186 relative (IL6R-BF648/IL6R-L = 100)	–	–	–	–	–	–	–
B4	128 relative (IL6R-BF648/IL6R-L = 100)	87 relative (IL6R-BF648/IL6R-L = 100)	–	165 relative (IL6R-BF648/IL6R-L = 100)	–	–	–	–	–	–	–
B5	118 relative (IL6R-BF648/IL6R-L = 100)	100 relative (IL6R-BF648/IL6R-L = 100)	123 relative (IL6R-BF648/IL6R-L = 100)	169 relative (IL6R-BF648/IL6R-L = 100)	–	–	–	–	–	–	–
B6	101 relative (IL6R-BF648/IL6R-L = 100)	92 relative (IL6R-BF648/IL6R-L = 100)	–	168 relative (IL6R-BF648/IL6R-L = 100)	–	–	–	–	–	–	–
B7	–	–	–	–	4200 nM	180 nM	5.6 nM	0.3	16.8	168	22.8
B8	–	–	–	–	510 nM	18 nM	9.4 nM	–	–	–	–
